Source: patent publication US20230001006A1 (GAMAMABS PHARMA, published 2023)

Columns and labels:
[1] = molecular target: T1, AMHRII on the COV434 AMHRII transfected cell line (~80,000 receptors) (human, UniProt Q16671 18-573); experiment: cell-based or functional assay
T1 sequence: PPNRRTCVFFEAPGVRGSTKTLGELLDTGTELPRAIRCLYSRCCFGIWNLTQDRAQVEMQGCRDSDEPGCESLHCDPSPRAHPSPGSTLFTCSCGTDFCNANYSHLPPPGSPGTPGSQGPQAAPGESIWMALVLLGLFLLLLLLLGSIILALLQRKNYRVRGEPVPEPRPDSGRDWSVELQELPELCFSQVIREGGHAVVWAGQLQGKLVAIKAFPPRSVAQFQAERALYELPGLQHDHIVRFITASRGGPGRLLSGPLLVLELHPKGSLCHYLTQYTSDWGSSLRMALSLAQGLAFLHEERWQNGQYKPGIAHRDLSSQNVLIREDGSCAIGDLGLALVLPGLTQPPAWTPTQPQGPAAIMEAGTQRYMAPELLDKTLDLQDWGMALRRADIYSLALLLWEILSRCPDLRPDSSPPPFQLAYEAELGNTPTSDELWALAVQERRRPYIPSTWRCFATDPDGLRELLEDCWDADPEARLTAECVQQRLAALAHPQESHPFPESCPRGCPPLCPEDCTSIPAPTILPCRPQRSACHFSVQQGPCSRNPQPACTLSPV

[2] = molecular target: T2, FcRn; experiment: SPR ('Binding SPR (KD)' row FcRn); set-up not given
T2 construct: also called neonatal Fc receptor

[3] = molecular target: T3, anti-Müllerian hormone type II receptor (AMHRII), immobilised on the SPR chip (human, UniProt Q16671 18-149, limits assumed); experiment: SPR (Bia3000, 25°C), AMHRII covalently immobilised on a CM5 chip, ADC injected, Langmuir 1:1 fit (Example 3)
T3 construct: also called AMHR2
Protocol: All kinetic measurements are performed on a Bia3000 apparatus at 25° C. in PBS pH 7.4 containing 0.005% of P20 surfactant at 50 μl/min on control and AMHRII Flowcells. The antibody is injected during 180 s at concentrations given in the appendix. After a dissociation step of 400 s in running buffer, sensor surfaces are regenerated using one pulse of 15 μl of Gly-HCL pH1.7. All the sensorgrams are corrected by subtracting the low signal from the control reference surface and blank buffer. Kinetic parameters are evaluated from the sensorgrams using a Langmuir 1:1 model on the BiaEvaluation software 4.2.
For kinetic studies all the mAb and ADC are injected at various concentrations (0.7 nM-100 nM). The sensorgrams are evaluated by L1:1 fitting model (BiaEvaluation 4.2 software) starting of minimum 3 (n=3) separated experiments or fits to obtain average values for ka, kd and KD with standard deviation (SD). Several experiments are performed on the same AMHRII-coated surface after verification of the responses stability to 10 nM injection of 3C23K before and after the experiment series with each mAb/ADC. All results are obtained from two AMHRII-coated Flowcells.

B1: GM104 (antibody, human IgG1, kappa)
heavy: QVRLVQSGAEVKKPGASVKVSCKASGYTFTSYHIHWVRQAPGQRLEWMGWIYPGDDSTKYSQKFQGRVTITRDTSASTAYMELSSLRSEDTAVYYCTRGDRFAYWGQGTLVTVSSASTKGPSVFPLAPSSKSTSGGTAALGCLVKDYFPEPVTVSWNSGALTSGVHTFPAVLQSSGLYSLSSVVTVPSSSLGTQTYICNVNHKPSNTKVDKRVEPKSCDKTHTCPPCPAPELLGGPSCVFLFPPKPKDTLMISRTPEVTCVVVDVSHEDPEVKFNWYVDGVEVHNAKTKPREEQYNSTYRVVSVLTVLHQDWLNGKEYKCKVSNKALPAPIEKTISKAKGQPREPQVYTLPPSREEMTKNQVSLTCLVKGFYPSDIAVEWESNGQPENNYKTTPPVLDSDGSFFLYSKLTVDKSRWQQGNVFSCSVMHEALHNHYTQKSLSLSPGK
light: DIQMTQSPSTLSASVGDRVTITCRASSSVRYIAWYQQKPGKAPKLLTYPTSSLESGVPSRFSGSGSGTEFTLTISSLQPDDFATYYCLQWSSYPWTFGGGTKVEIKRTVAAPSVFIFPPSDEQLKSGTASVVCLLNNFYPREAKVQWKVDNALQSGNSQESVTEQDSKDSTYSLSSTLTLSKADYEKHKVYACEVTHQGLSSPVTKSFNRGEC
notes: also called GM104 ADC; ADC according to the invention
B1 was tested. Which “IC50, proliferation/viability of COV434 AMHRII transfected cells after 72 h (CellTiter Blue)” value [1] did it give?
The value was 220 pM.

And the Kd [2]?
The Kd was 22 nM.

And the Kd [3]?
Its Kd is 1.7 nM.
